Measurements from patent publication US20040171158A1 (VECTORLOGICS, published 2004).

Tests used:
[1] = biological target: T1, Ad5 fiber-zipper protein with zipper peptide EE12RR345L at the carboxy terminus of the fiber (Ad5 (adenovirus serotype 5), UniProt P11818 1-581); test: co-precipitation of cell lysate with 6His-tagged sCAR on Ni-NTA matrix, detection with anti-fiber antibody
T1 construct: Transiently expressed in 293 cells, tested as cell lysate; also called Carboxy terminus of the fiber EE12RR345L; pVS-LL-EN

[2] = biological target: T2, Ad5 fiber-zipper protein with zipper peptide RR12EE345L at the carboxy terminus of the fiber (Ad5 (adenovirus serotype 5), UniProt P11818 1-581); test: as above
T2 construct: Transiently expressed in 293 cells, tested as cell lysate; also called Carboxy terminus of the fiber RR12EE345L; pVS-LL-RN
T2 sequence: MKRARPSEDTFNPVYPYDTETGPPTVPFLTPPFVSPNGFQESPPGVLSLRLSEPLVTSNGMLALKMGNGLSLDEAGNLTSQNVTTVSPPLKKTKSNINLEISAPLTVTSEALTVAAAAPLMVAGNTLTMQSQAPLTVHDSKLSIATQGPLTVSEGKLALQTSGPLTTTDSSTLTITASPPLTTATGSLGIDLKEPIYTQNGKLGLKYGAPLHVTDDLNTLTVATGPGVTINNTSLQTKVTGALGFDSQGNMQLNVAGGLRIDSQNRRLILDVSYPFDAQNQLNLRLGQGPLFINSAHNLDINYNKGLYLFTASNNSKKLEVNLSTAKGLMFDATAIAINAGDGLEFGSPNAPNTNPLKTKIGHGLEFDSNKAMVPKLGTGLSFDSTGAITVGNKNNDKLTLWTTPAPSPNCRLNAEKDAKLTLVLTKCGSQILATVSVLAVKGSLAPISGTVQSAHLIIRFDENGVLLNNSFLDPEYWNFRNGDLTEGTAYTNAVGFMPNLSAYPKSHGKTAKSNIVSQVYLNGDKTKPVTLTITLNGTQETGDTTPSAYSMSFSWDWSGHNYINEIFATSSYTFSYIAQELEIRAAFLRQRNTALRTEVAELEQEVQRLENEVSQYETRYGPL

B1: soluble form of the coxsackie virus and adenovirus receptor (CAR) with a carboxy terminal 6His tag (receptor)
chain: LSITTPEEMIEKAKGETAYLPCKFTLSPEDQGPLDIEWLISPADNQKVDQVIILYSGDKIYDDYYPDLKGRVHFTSNDLKSGDASINVTNLQLSDIGTYQCKVKKAPGVANKKIHLVVLVKPSGARCYVDGSEEIGSDFKIKCEPKEGSLPLQYEWQKLSDSQKMPTSWLAEMTSSVISVKNASSEYSGTYSCTVRNRVGSDQCLLRLNVVPPSNKAHHHHHH
notes: also called sCAR; native adenoviral receptor
B1: no binding [1]; no binding [2].
